We go through one substance from US6767887.

The test addresses human neutral endopeptidase 24.11 (human) (UniProt P08473). The test can be described thus: cell-based or functional assay.

Take “GLP-1-(7-36)-NH2 (from UniProt P01275 98-127) (peptide)”: the Degradation rate (mM/100 ng/ml NEP24.11/min) was 0.0586.
